In PMC9482650, “Quantitative fragmentomics allow affinity mapping of interactomes” (Nature Communications, 2022):

T1: LIN7C, Q9NUP9
T1 sequence (Q9NUP9 88-185, limits assumed, looked up): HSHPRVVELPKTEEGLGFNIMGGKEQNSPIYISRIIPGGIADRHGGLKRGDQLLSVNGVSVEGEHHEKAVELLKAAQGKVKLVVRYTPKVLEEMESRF

T2: PARD3B_1, Q8TEW8
T2 sequence (Q8TEW8 196-299, limits assumed, looked up): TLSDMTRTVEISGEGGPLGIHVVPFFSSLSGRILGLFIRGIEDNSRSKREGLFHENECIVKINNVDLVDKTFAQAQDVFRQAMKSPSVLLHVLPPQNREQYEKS

T3: GRIP1_4, Q9Y3R0
T3 sequence (Q9Y3R0 467-571, limits assumed, looked up): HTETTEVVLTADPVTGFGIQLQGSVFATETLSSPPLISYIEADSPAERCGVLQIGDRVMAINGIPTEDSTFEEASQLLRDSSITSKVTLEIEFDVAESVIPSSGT

T4: RHPN1, Q8TCX5
T4 sequence (Q8TCX5 508-602, limits assumed, looked up): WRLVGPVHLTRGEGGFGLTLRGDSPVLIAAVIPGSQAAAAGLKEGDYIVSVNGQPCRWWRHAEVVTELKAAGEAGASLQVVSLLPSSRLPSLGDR

T5: CARD11, Q9BXL7
T5 sequence (Q9BXL7 662-765, limits assumed, looked up): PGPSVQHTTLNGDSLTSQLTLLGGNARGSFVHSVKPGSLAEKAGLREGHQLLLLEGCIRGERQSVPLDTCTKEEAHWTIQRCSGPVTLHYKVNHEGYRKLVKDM

T6: SIPA1L2, Q9P2F8
T6 sequence (Q9P2F8 945-1036, limits assumed, looked up): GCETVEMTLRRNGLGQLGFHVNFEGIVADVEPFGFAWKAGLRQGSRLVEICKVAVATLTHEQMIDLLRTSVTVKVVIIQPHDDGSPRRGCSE

T7: MPDZ_12, O75970
T7 sequence (O75970 1857-1958, limits assumed, looked up): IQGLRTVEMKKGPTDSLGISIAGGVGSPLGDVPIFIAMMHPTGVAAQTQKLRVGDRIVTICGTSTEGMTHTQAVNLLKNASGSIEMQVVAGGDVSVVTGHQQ

T8: SHANK1, Q9Y566
T8 sequence (Q9Y566 658-767, limits assumed, looked up): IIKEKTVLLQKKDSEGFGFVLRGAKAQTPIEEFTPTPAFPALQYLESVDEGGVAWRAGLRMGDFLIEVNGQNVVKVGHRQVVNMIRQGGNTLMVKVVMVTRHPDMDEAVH


Key:
Assay in all cases: holdup assay
Design in all cases: key: below the threshold = too weak to quantify, mostly under pKd 3.1 to 4
Settings in all cases: plain residues with an end cap or a label only (N-terminal biotin on a linker: ado-ado)
[1] = biological target: T1, LIN7C, Q9NUP9
[2] = biological target: T2, PARD3B_1, Q8TEW8
[3] = biological target: FRMPD4, Q14CM0
Chain of FRMPD4, Q14CM0 (Q14CM0 67-160): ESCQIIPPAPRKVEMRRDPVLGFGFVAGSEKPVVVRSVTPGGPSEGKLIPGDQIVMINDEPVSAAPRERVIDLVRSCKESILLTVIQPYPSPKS

[4] = biological target: GORASP1, Q9BQQ3
Chain of GORASP1, Q9BQQ3 (Q9BQQ3 1-208): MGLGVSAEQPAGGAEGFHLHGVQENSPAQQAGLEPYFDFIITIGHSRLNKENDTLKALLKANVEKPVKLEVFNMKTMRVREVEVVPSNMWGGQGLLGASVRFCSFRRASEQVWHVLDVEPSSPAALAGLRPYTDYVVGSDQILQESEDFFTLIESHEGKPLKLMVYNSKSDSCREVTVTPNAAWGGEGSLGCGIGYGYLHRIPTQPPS

[5] = biological target: HTRA2, O43464
Chain of HTRA2, O43464 (O43464 355-458): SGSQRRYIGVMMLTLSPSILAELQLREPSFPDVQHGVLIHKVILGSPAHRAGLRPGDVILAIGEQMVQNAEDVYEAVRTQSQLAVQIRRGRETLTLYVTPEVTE

[6] = biological target: FRMPD2_2, Q68DX3
Chain of FRMPD2_2, Q68DX3 (Q68DX3 944-1038): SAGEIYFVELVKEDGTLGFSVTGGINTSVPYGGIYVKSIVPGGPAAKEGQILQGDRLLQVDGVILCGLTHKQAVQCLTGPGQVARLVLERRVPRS

[7] = biological target: LDB3, O75112
Chain of LDB3, O75112 (O75112 1-94): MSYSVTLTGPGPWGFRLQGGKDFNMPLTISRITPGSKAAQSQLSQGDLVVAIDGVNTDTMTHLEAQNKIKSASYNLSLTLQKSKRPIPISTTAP

[8] = biological target: Inadl_1, Q8NI35
Chain of Inadl_1, Q8NI35 (Q8NI35 113-229): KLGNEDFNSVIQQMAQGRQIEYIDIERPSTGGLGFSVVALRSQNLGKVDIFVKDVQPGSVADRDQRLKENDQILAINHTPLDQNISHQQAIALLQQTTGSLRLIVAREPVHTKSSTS

[9] = biological target: NHERF4_1, Q86UT5-2
Chain of NHERF4_1, Q86UT5-2 (Q86UT5 other isoform, or with tags, fused parts or gaps): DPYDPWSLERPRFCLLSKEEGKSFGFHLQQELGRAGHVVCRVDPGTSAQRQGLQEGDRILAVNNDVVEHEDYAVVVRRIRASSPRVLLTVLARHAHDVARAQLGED

[10] = biological target: NHERF2_2, Q15599
Chain of NHERF2_2, Q15599 (Q15599 142-238): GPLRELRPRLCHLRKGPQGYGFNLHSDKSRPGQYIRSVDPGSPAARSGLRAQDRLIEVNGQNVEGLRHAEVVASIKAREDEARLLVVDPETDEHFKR

[11] = biological target: SNX27, Q96L92
[12] = biological target: GRIP2_4, Q9C0E4
Chain of GRIP2_4, Q9C0E4 (Q9C0E4 446-548): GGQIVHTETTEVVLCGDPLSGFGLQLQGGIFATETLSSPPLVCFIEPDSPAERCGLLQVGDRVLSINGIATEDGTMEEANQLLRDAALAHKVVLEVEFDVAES

[13] = biological target: DLG1_3, Q12959
Chain of DLG1_3, Q12959 (Q12959 457-571): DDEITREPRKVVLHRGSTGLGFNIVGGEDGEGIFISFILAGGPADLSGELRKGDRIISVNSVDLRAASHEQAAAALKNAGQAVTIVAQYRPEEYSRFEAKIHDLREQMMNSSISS

[14] = biological target: GRID2IP_2, A4D2P6
Chain of GRID2IP_2, A4D2P6 (A4D2P6 272-370): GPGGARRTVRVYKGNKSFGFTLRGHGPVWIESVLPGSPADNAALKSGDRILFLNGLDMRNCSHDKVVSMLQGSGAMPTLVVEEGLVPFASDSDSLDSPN

[15] = biological target: T3, GRIP1_4, Q9Y3R0
[16] = biological target: T4, RHPN1, Q8TCX5
[17] = biological target: Inadl_2, Q8NI35
Chain of Inadl_2, Q8NI35 (Q8NI35 238-335): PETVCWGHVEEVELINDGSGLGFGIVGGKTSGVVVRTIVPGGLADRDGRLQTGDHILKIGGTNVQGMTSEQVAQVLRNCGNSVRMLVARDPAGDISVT

[18] = biological target: T5, CARD11, Q9BXL7
[19] = biological target: T6, SIPA1L2, Q9P2F8
[20] = biological target: MAGI2_6, Q86UL8
Chain of MAGI2_6, Q86UL8 (Q86UL8 1141-1229): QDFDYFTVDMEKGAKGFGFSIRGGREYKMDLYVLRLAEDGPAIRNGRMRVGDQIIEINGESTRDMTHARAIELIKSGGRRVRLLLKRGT

[21] = biological target: Inadl_6, Q8NI35
Chain of Inadl_6, Q8NI35 (Q8NI35 1058-1167): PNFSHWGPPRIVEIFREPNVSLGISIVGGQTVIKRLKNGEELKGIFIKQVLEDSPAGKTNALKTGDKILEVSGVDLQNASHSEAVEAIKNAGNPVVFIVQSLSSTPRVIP

[22] = biological target: MAGI2_2, Q86UL8
Chain of MAGI2_2, Q86UL8 (Q86UL8 410-522): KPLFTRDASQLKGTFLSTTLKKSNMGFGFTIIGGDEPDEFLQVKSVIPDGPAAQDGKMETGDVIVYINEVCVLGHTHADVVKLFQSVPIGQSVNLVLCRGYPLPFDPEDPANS

[23] = biological target: PTPN3, P26045
Chain of PTPN3, P26045 (P26045 505-587): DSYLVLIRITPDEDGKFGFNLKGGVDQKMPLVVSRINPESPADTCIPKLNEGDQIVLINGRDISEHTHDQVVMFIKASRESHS

[24] = biological target: NHERF4_4, Q86UT5
Chain of NHERF4_4, Q86UT5 (Q86UT5 464-550): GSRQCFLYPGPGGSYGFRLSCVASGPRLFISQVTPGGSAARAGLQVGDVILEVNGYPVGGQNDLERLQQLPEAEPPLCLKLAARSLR

[25] = biological target: LNX1_3, Q8TBB1
Chain of LNX1_3, Q8TBB1 (Q8TBB1 500-596): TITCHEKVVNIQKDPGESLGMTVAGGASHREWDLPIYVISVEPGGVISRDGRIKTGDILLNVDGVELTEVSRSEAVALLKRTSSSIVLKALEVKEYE

[26] = biological target: T7, MPDZ_12, O75970
[27] = biological target: SCRIB_3, Q14160
Chain of SCRIB_3, Q14160 (Q14160 999-1103): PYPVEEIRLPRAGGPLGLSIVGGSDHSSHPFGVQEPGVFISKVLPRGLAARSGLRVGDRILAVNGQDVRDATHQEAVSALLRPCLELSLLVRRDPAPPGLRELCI

[28] = biological target: T8, SHANK1, Q9Y566
[29] = biological target: DLG4_1, P78352
Chain of DLG4_1, P78352 (P78352 62-152): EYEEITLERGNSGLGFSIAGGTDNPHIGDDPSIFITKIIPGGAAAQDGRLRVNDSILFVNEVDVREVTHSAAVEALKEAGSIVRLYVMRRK

Row | Binder | pKd [1] | pKd [2] | pKd [3] | pKd [4] | pKd [5] | pKd [6] | pKd [7] | pKd [8] | pKd [9] | pKd [10] | pKd [11] | pKd [12] | pKd [13] | pKd [14] | pKd [15] | pKd [16] | pKd [17] | pKd [18] | pKd [19] | pKd [20] | other results
1 | GTMFLRETSL [GUCY1A2, P33402] | 4.83 | 3.88 | 4.35 | below the threshold | below the threshold | below the threshold | below the threshold | below the threshold | 4.54 | 4.56 | 5.72 | below the threshold | 5.09 | 4.62 | below the threshold | 4.8 | below the threshold | below the threshold | below the threshold | 4.51 | pKd [21]: 4.84; pKd [22]: 4.29; pKd [23]: 5.04; pKd [24]: below the threshold; pKd [25]: below the threshold; pKd [26]: below the threshold; pKd [27]: 5.37; pKd [28]: 4.33; pKd [29]: 4.03
2 | GQNMTVSVVI [PRLHR, P49683] | below the threshold | 4.86 | below the threshold | 4.28 | below the threshold | below the threshold | below the threshold | below the threshold | 3.64 | 3.69 | 4.34 | below the threshold | below the threshold | below the threshold | below the threshold | below the threshold | below the threshold | below the threshold | 3.54 | below the threshold | pKd [21]: below the threshold; pKd [22]: below the threshold; pKd [23]: 3.77; pKd [24]: 3.97; pKd [25]: below the threshold; pKd [26]: below the threshold; pKd [27]: 3.66; pKd [28]: below the threshold; pKd [29]: below the threshold
3 | NSTHNLKDYV [CLDN20, P56880] | below the threshold | below the threshold | below the threshold | below the threshold | below the threshold | below the threshold | below the threshold | below the threshold | 3.69 | below the threshold | below the threshold | below the threshold | below the threshold | below the threshold | below the threshold | below the threshold | below the threshold | below the threshold | below the threshold | below the threshold | pKd [21]: below the threshold; pKd [22]: below the threshold; pKd [23]: below the threshold; pKd [24]: below the threshold; pKd [25]: below the threshold; pKd [26]: below the threshold; pKd [27]: below the threshold; pKd [28]: below the threshold; pKd [29]: below the threshold

Continued, in another order:

Row | pKd [1] | pKd [2] | pKd [3] | pKd [4] | pKd [5] | pKd [6] | pKd [7] | pKd [8] | pKd [9] | pKd [10] | pKd [11] | pKd [12] | pKd [13] | pKd [14] | pKd [15] | pKd [16] | pKd [17] | pKd [18] | pKd [19] | pKd [20] | Binder | other results
4 | 3.48 | below the threshold | 3.56 | below the threshold | below the threshold | below the threshold | below the threshold | below the threshold | 3.63 | below the threshold | below the threshold | below the threshold | below the threshold | below the threshold | below the threshold | 3.79 | below the threshold | below the threshold | below the threshold | below the threshold | DLLGGGSDSI [TNRC6B, Q9UPQ9] | pKd [21]: below the threshold; pKd [22]: below the threshold; pKd [23]: below the threshold; pKd [24]: below the threshold; pKd [25]: below the threshold; pKd [26]: 3.53; pKd [27]: below the threshold; pKd [28]: below the threshold; pKd [29]: below the threshold
5 | below the threshold | 3.77 | below the threshold | below the threshold | 3.52 | below the threshold | below the threshold | below the threshold | 4.27 | 4.32 | 3.94 | below the threshold | 3.97 | 4.71 | below the threshold | 3.76 | below the threshold | below the threshold | 3.62 | below the threshold | IKLETKKTKL [SLC15A2, Q16348] | pKd [21]: below the threshold; pKd [22]: 3.47; pKd [23]: below the threshold; pKd [24]: below the threshold; pKd [25]: below the threshold; pKd [26]: below the threshold; pKd [27]: 3.77; pKd [28]: 4.85; pKd [29]: 3.69
